Experimental data: patent publication US20220089757A1 (ADAGENE PTE, published 2022)
Positions count from the first letter of the chain named.

T1: human CD137L peptide 01 (human, biotinylated (position not given))
T1 construct: Synthesized as biotinylated peptide
T1 peptide: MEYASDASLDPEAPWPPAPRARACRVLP

T2: human CD137L peptide 02 (human, biotinylated (position not given))
T2 construct: Synthesized as biotinylated peptide; identical to peptide 01 except that it lacks the C-terminal 5 residues
T2 peptide: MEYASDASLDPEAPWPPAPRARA

B1: TY23561 (antibody, V domains shown)
VH: EVQLVESGGGLVQPGGSLRLSCAASGFSLSTSGVGVSWIRQAPGKGLEWLALIDWAGDKYYSPSLKSRLTISRDNSKNTLYLQLNSLRAEDTAVYYCARYGYSSYALDYWGQGTLVTVSS
VL: DIQLTQSPSSLSASVGDRVTITCRASQSVRGSYLAWYQQKPGKAPKLLIYAASTLQSGVPSRFSGSGSGTDFTLTISSLQPEDFATYYCQQYSSLWTFGQGTKVEIKR
notes: Tested as IgG with Fc from mouse IgG2a, expressed in mammalian cells
B2: TY23554 (antibody, V domains shown)
VH: EVQLVESGGGLVQPGGSLRLSCAASGYSITSGYYWAWIRQAPGKGLEWIGIINPNRGSTKYAQKFQGRVTISRDNSKNTLYLQLNSLRAEDTAVYYCARDGWALSGGYYYYYGLDVWGQGTLVTVSS
VL: DIQLTQSPSSLSASVGDRVTITCRASQDISSDLAWYQQKPGKAPKLLIYDASNLETGVPSRFSGSGSGTDFTLTISSLQPEDFATYYCQQYDAWPSTFGQGTKVEIKR
notes: as for B1
B3: TY23557 (antibody, V domains shown)
VH: EVQLVESGGGLVQPGGSLRLSCAASGFTFTGYGIHWVRQAPGKGLEWVSAISGSGGSTYYADSVKGRFTISRDNSKNTLYLQLNSLRAEDTAVYYCARGAYYGGSYYFDYWGQGTLVTVSS
VL: DIQLTQSPSSLSASVGDRVTITCRASESITSSYLAWYQQKPGKAPKLLIYDASSLESGVPSRFSGSGSGTDFTLTISSLQPEDFATYYCFQGSHYPPTFGQGTKVEIKR
notes: as for B1
B4: TY23558 (antibody, V domains shown)
VH: EVQLVESGGGLVQPGGSLRLSCAASGYSISSGHYWSWIRQAPGKGLEWIGEIYHSGSTYYSPSLKSRVTISRDNSKNTLYLQLNSLRAEDTAVYYCAREGSDSYGGPDPFDIWGQGTLVTVSS
VL: DIQLTQSPSSLSASVGDRVTITCRARSTVSFPYLHWYQQKPGKAPKLLIYDASNLETGVPSRFSGSGSGTDFTLTISSLQPEDFATYYCQQSLEDPFTFGQGTKVEIKR
notes: Tested as IgG with Fc from mouse IgG2a, expressed in mammalian cells; also called TV23558
B5: TY23562 (antibody, V domains shown)
VH: EVQLVESGGGLVQPGGSLRLSCAASGYSISSGYHWDWIRQAPGKGLEWIGRINPNRGSTKYAQKFQGRVTISRDNSKNTLYLQLNSLRAEDTAVYYCAREFGAYWGQGTLVTVSS
VL: DIQLTQSPSSLSASVGDRVTITCRASQSVDFVGKSFLDWYQQKPGKAPKLLIYDASNLETGVPSRFSGSGSGTDFTLTISSLQPEDFATYYCQQRASWPLTFGQGTKVEIKR
notes: as for B1
B6: TY23555 (antibody, V domains shown)
VH: EVQLVESGGGLVQPGGSLRLSCAASGYSISSGHYWAWIRQAPGKGLEWVSVISGSGGSTYYADSVKGRFTISRDNSKNTLYLQLNSLRAEDTAVYYCARYRSGAFDYWGQGTLVTVSS
VL: DIQLTQSPSSLSASVGDRVTITCRASQSISRWLAWYQQKPGKAPKLLIYAASSLQSGVPSRFSGSGSGTDFTLTISSLQPEDFATYYCQQAYSIWTFGQGTKVEIKR
notes: as for B1
B7: TY23556 (antibody, V domains shown)
VH: EVQLVESGGGLVQPGGSLRLSCAASGYSITSGHYWGWIRQAPGKGLEWIGEIYHSGSTYYSPSLKSRVTISRDNSKNTLYLQLNSLRAEDTAVYYCTRGRYGLDYWGQGTLVTVSS
VL: DIQLTQSPSSLSASVGDRVTITCSASSSVGYVQWYQQKPGKAPKLLIYDASNRATGIPSRFSGSGSGTDFTLTISSLQPEDFATYYCQQYGSAPITFGQGTKVEIKR
notes: as for B1
B8: TY23559 (antibody, V domains shown)
VH: B7 VH with T30S, G36A
VL: B7 VL with G30S, G91S, S92T, A93N, I95L
notes: as for B1

Molecular target: T1, human CD137L peptide 01
Test: ELISA, IgG on CD137L peptide 01

EC50 [nM]	Binder
166	B1
3.13	B2
10.1	B3
3.84	B4
2.04	B5
28.5	B6
0.66	B7
1.03	B8

Molecular target: T2, human CD137L peptide 02
Test: ELISA, IgG on CD137L peptide 02

EC50 [nM]	Binder
50	B1
1.59	B2
6.77	B3
1.51	B4
0.74	B5
12.3	B6
0.48	B7
0.65	B8

The binders below were run against T3, full length human CD137L (human, UniProt P41273 1-254) (assay: immunofluorescence microscopy on fixed and permeabilized CHO-S-CD137L cells).
T3 construct: also called CD137 ligand; human CD137 ligand
Experimental: FIGS. 3A-3C show immunofluorescence staining of TY23557, TY23561, the Reference-1 and isotype control antibodies at the indicated concentrations. The positive control CHO-S-CD137L cell line and the negative control CHO-S cells were washed, fixed and permabilized in a similar fashion as in immunohistochemistry (IHC), followed by analysis through fluorescence microscopy. (FIG. 3A) CHO-S-CD137L cells were stained with TY23557 or TY23561 (0.4 nM or 40 nM). (FIG. 3B) CHO-S-CD137L cells were stained with Reference-1 (6.66 nM) or negative isotype control (40 nM). (FIG. 3C) CHO-S cells were stained with TY23557 (40 nM), TY23561 (40 nM), negative isotype control (40 nM) or Reference-1 (6.66 nM).
The specificity of the antibodies were further confirmed with immunofluorescence analysis. To that end, CHO-S and CHO-S-CD137L cells were cultured on cover slides overnight. Cells were washed with DPBS followed by fixing and permeabilizing with 2% (v/v) paraformaldehyde and 0.1% Triton X 100. Then the cells were incubated with TY23557, TY23561, negative isotype control and Reference-1 (positive control) for one hour at room temperature. After washing by 0.05% PBST, PE Goat anti-mouse IgG Fc were added and staining for one hour at room temperature. The samples were analyzed with fluorescent microscopy.

binding result	Binder
binds	B3
